{"source": "patent US20040038887A1", "about": "(Harvard, published 2004)", "binders": {"B1": {"name": "Biotinylated MBP 86-100 (SEQ ID NO: 1) (peptide)", "peptide": "SGSGNPVVHFFKNIVTPRT", "modifications": "not fully specified"}, "B2": {"name": "MBP 85-99 (SEQ ID NO: 2), unlabeled (peptide)", "peptide": "ENPVVHFFKNIVTPR", "notes": "also called unlabeled MBP 85-99 peptide; synthetic unlabeled peptide control MBP 85-99"}}, "key": {"[1]": {"target": "T1, Recombinant water-soluble HLA-DR-2 molecules (DRB1*1501) (human)", "T1 chain 1": "not shown", "T1 chain 2": "not shown", "assay": "ELISA, biotinylated MBP 86-100 (0.13 uM) on soluble HLA-DR-2, no competitor; background 0.1"}, "[2]": {"target": "T2, Recombinant water-soluble HLA-DR-2 molecules (DRB1*1501) (human, UniProt P01903 26-216; P01911 30-227, limits assumed)", "T2 construct": "Expressed in Drosophila S2 cells and purified on a Protein A-LB3.1 column 'as described (Kalandadze et al. 1996)'; also called HLA DR-2 (DRB1*1501); purified HLA-DR-2", "assay": "competition ELISA, unlabeled inhibitor against biotinylated MBP 86-100 on soluble HLA-DR-2 (LB3.1 capture, streptavidin-AP)"}}, "note": "No end group written: not given here."}
{"binder": "B1", "values": [{"measurement": "signal at 410 nm without competitor (absorbance at 410 nm)", "setting": "[1]", "value": "0.8 to 0.9"}]}
{"binder": "B2", "values": [{"measurement": "binding result", "setting": "[2]", "value": "binds"}]}
